Values of other authors, collected in publication PMC4986992.

Molecular target: Glycophorin A (GpATM) TM (Homo sapiens) (UniProt P02724)

For “Glycophorin A (GpATM) TM (from UniProt P02724)”, the Kd is given as 1.2 pM.
